Source: paper PMC9295563, “A Reduced F420-Dependent Nitrite Reductase in an Anaerobic Methanotrophic Archaeon” (Journal of Bacteriology, 2022)
One block for each compound: values may come before it.

Assays:
[1] = target: T1, ANME2c-FsrII-6D (uncultured archaeon, UniProt Z9BHN8L6W9); test: inhibition of F420H2-dependent nitrite reduction, F420H2 oxidation at […] nm; assay type: biochemical, uncultured ANME-2c archaeon; set-up: gene fsr; full-length two-domain protein (Fsr-N 1-341, Fsr-C 356-642); expressed from pDS701 in Methanosarcina acetivorans WWM60; F420-Sepharose purified, no tag mentioned; siroheme, FAD, about four [Fe4-S4] per subunit; details: read-out: apparent Ki
T1 sequence (Z9BHN8L6W9 1-642): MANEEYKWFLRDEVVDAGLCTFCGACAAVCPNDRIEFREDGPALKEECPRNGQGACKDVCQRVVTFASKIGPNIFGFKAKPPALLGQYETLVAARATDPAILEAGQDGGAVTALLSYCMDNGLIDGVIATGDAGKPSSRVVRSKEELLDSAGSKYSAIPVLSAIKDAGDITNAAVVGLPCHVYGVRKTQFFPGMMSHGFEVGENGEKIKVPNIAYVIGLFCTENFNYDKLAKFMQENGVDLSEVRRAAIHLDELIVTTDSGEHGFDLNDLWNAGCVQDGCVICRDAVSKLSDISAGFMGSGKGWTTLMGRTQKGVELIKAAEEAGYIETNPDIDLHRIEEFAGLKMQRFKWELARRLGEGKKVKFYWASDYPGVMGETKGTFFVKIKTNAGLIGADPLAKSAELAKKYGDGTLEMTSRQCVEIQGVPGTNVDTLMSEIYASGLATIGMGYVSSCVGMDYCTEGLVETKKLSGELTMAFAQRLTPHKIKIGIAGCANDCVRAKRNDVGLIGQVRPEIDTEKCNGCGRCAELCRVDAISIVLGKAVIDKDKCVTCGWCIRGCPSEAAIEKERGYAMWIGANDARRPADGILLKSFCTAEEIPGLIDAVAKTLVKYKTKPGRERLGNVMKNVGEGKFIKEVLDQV

[2] = system: CN1C=C[C](c2cc[n+](C)cc2)C=C1; test: purified protein; assay type: biochemical, uncultured ANME-2c archaeon; details: pH 7.0
[3] = system: T2, O=S(O)O; test: purified protein; assay type: biochemical, uncultured ANME-2c archaeon; details: 408 μM reduced methyl viologen, 10-500 μM sulfite, with DTT, pH 7 phosphate, anaerobic, kcat in electrons transferred per subunit
T2 construct: full-length two-domain protein (Fsr-N 1-341, Fsr-C 356-642); expressed from pDS701 in Methanosarcina acetivorans WWM60; F420-Sepharose purified, no tag mentioned; siroheme, FAD, about four [Fe4-S4] per subunit

[4] = system: O=NO; test: purified protein; details: 40 μM F420H2, 2-100 μM nitrite, 0.5 mM DTT, pH 7 phosphate, anaerobic, kcat in electrons transferred per subunit
[5] = target: T1, ANME2c-FsrII-6D; test: F420H2 oxidation at […] nm; set-up: gene fsr; details: read-out: Km (μM) for the varied substrate; 500 μM nitrite, 1-80 μM F420H2, 0.5 mM DTT, pH 7 phosphate, anaerobic; kcat in electrons transferred per subunit

- Ki [1]: 130 ± 86 µM
Compound: O=S(O)O [sulfite]

Compound: ANME2c-FsrII-6D (uncultured archaeon)
- Km [2]: 137 ± 26 µM
- kcat/Km [2]: 0.5 ± 0.1 (MV^·+)
- Km [3]: 129 ± 20 µM
- kcat [3]: 1.07 ± 0.0667 s⁻¹
- kcat/Km [3]: 0.5 ± 0.1 (HSO3^−)
- Km [4]: 5 ± 1 µM
- kcat [4]: 0.3 ± 0.0167 s⁻¹
- kcat/Km [4]: 4 ± 1 (NO2^−)

- Km [5]: 14 ± 2 µM
Compound: F420H2
